Source: the supplement of paper PMC9170038

Legend:
Settings in all cases: FMN input: 0 or 200 uM; Eterna round: R93 (includes R88 designs)
MS2 coat protein [1] = test: apparent KD of MS2 coat protein, switch OFF state (with FMN for OFF switches, without FMN for ON switches); designed switch direction (-1 OFF switch, 1 ON switch): 1; higher = weaker reporter binding
In short: (§1)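 Normalised binding curves from single clusters were fitted, and the median fit for each design is given as apparent KD. The clusters held designed RNA switches transcribed on-chip from Illumina sequencing clusters. These were titrated with SNAP-549-labelled MS2 coat protein (twofold steps from 0.7 or 1.5 nM to 3 µM, 0.8–1.5 h to 10–20 min per step) in 100 mM Tris-HCl pH 7.5, 80 mM KCl, 4 mM MgCl2, without or with constant ligand.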

MS2 coat protein [2] = test: apparent KD of MS2 coat protein, switch ON state; designed switch direction (-1 OFF switch, 1 ON switch): 1; higher = weaker reporter binding
In short: as §1

MS2 coat protein [3] = test: apparent KD of MS2 coat protein, switch ON state; designed switch direction (-1 OFF switch, 1 ON switch): -1; higher = weaker reporter binding
In short: as §1

MS2 coat protein [4] = test: apparent KD of MS2 coat protein, switch OFF state (with FMN for OFF switches, without FMN for ON switches); designed switch direction (-1 OFF switch, 1 ON switch): -1; higher = weaker reporter binding
In short: as §1

Sequence	apparent KD of MS2 coat protein (MS2 coat protein [1]) [nM]	apparent KD of MS2 coat protein (MS2 coat protein [2]) [nM]	apparent KD of MS2 coat protein (MS2 coat protein [3]) [nM]	apparent KD of MS2 coat protein (MS2 coat protein [4]) [nM]
CCGAGGAAGAGAGAGGAUAUCCAAAGGAAAACAUGAGGAUCACCCAUGUAAAAGGUAGGAAAUUGGGAGAAGGCUCAAGAGAGAG [salish99-ss2-072]	47.1	38.7		
AAAAAACAUGAGGAUCACCCAUGUCUUUUGACAUGAGGAUAUGUACAGACUUCGGUCUGUACAGAAGGCAUAAAAA [SS1 - 1030]	480	109		
AAGAAACAUGAGGAUCACCCAUGUACCCAAAAGGGAGGAUAUCCGAAAGAAAGAAAGAAAGGAGAAGGCCCAUGAA [Xerxes II]	34.2	12.6		
AAAAGACAUGAGGAUCACCCAUGUAGGCCAAAGCAAGGAUAUAGGCCACAGGGACGCGGACUAGAAGGUGCACGGC [Orerorge]	60.2	25.2		
AAGAAACAUGAGGAUCACCCAUGUAAAUAAAACACAGGAUAUCGAAUAUGGGAGAUUUAACGAGAAGGGUGAAGAA [Meechl MS2 SS1 3]	87.7	36		
AGAAAUAAAAGCUAGGAUAUCCAAAAGAAAACAUGAGGAUCACCCAUGUAAAAGAAAAUAAAGUGGGAGAAGGAGCAAAAUAAGA [Starry modified]	35.6	18		
AGGAAACAUGAGGAUCACCCAUGUAUAAAAAUGGGAGGAUAUACUAAGACGAAAGUCAUAGUAGAAGGCCUAAAAA [76%, Meechl, 8]	52.6	24.3		
AAAUAAAGGACUGAGGAUAUACCACAUGAAACAUGAGGAUCACCCAUGUAGAAAUACAAAGGGUGGUAGAAGGUAGUCCACAAAC [Same State 2.5 so lets mod hyphema)]	68.9	45.9		
GGGAGUAACAGAGAGGAUAUCCAAAGGAAAACAUGAGGAUCACCCAUGUAAAAGGAAGGAAAUUGGGAGAAGGCUCAAAAUAGAA [salish99-ss2-021]	27	13.9		
AAAAUACAUGAGGAUCACCCAUGUGAAAAUAUGGGAGGAUAUACGAAAAAUAAAUAAAACGUAGAAGGCCUAAAAA [SS! 1 MT 2]	165	22.2		
CGGAAGGAGAGGGAGGAUAUCCAAAGGAAAACAUGAGGAUCACCCAUGUAGAAGGUAGGAAAUUGGGAGAAGGCUCAAGAGAGAG [salish99-ss2-131]	24.4	32.3		
AAAACACAUGAGGAUCACCCAUGUAGAAAUAUGGGAGGAUAUACGAAAACGAAAGUCAAAGUAGAAGGCCUAAAAG [saturn 3]	79	30.9		
GAAGACAUAGUUCAGGAUAUAGGAAUAGUCACAUGAGGAUCACCCAUGUGCAUUUAUAUGCGCACUUAGAAGGGAGGUAGUUAAU [Mat - Same state - Malcolm Mod - D120]	26.8	28.4		
GAAAAACAUGAGGAUCACCCAUGUAGAAAUAUGGGAGGAUAUACAAAGACGAAAGUCAAAGUAGAAGGCCUGAGAA [Mat - Same State 1 - Eli mod - 83]	103	21		
AAGAAACAUGAGGAUCACCCAUGUAAAAAUAUGGGAGGAUAUGCGAAAAGAAACAAAGAAGCAGAAGGCCUAAGAA [75%, Ex5 sub 1, 6]	51.1	15.9		
AAGGGACAUGAGGAUCACCCAUGUUAGGAUAUGCAAAUAACAAACAACAAACAACAAAGCAGAAGGGACAAAAA [Mat - Exclusion 1 - Eli mod - D54]			37.5	29.3
AGCAAGUAAGGAUAUGCGAAGUCAGGACACACACUGACAAAGCAGAAGGUACAUGAGGAUCACCCAUGUAAGCA [Mat - Exaclusion 4 - Eli mod - D62]			21.8	14.9
AAAAAACAUGAGGAUCACCCAUGUCAGGAUAUGCUCAGCAAUAUUAAAAUAAAGAACGGUAGAAGGGACAGAAA [Bilbo Confounded 23 - Jieux - Exclusion 1]			35.8	34.7
CCCAUGUCAGGAUAUCAGUAGUAAAAAAAAAAAAUUACUACUGAGAAGGGACAUGAGGAUCACCCAUGUCACUU [EX4 320: Super Stable 20]			74.9	53.2
AAAAAAGGAGGAUAUACGUACAUGUCAAAAGACGUGAAGGGACAUGAGGAUCACCCAUGUAGAAGGCUUAAAAA [JL Stem Breaker 6]			47.7	18.1
AGGCAGACAGGAUAUACUUGGGCAGCCAGUAUGGUAAUAUAACAUGAGGAUCACCCAUGUAGAAGGGUCAGAAA [JR_Exc002_Sub210]			94.3	88.4

Sequence	apparent KD of MS2 coat protein (MS2 coat protein [1]) [nM]	apparent KD of MS2 coat protein (MS2 coat protein [2]) [nM]	apparent KD of MS2 coat protein (MS2 coat protein [3]) [nM]	apparent KD of MS2 coat protein (MS2 coat protein [4]) [nM]
AAGAAGCUAGGAUAUACUAAAGAAAUGAAAAGAAAUAAAGAACAUGAGGAUCACCCAUGUAGAAGGAGCAAGAA [Djefare]			42.3	18.9
AAAAAGUCAGGAUAUAGAAAAGGUCACGAAAGUGACAAAGGCUAGAAGGGACAUGAGGAUCACCCAUGUAAAAA [Mat - Mod of Eli]			53.5	28.8
AAAACGUGAGGAUAUGCACCAAAAAAGGUAUUUCGGGUACGACAUGAGGAUCACCCAUGUAGAAGGCACGAAAA [Frodo Flailing 13 - Jieux - Exclusion 2]			22.8	19.8
UUUUGACAUGAGGAUCACCCAUGUCAGGAUAUAGUAAGAAAAAAAAAAAAAAAAACUACUAGAAGGGAUAUGGA [Amethyst 51]			24.5	25.4
GUGAAGGAAGGAUAUACAAAGGGACGUUAUAAGAGAAGAAGACAUGAGGAUCACCCAUGUAGAAGGUCCAGAUC [Beorteesri]			25.9	43.5
AAAAUACAUGAGGAUCACCCAUGUGAGGAUAUGCGAAUAAAAAUAAAAUAAAAUAAAAGCAGAAGGCACGAAAA [EX 1 May 24]			33.4	32.8
AUAAACGGAGGAUAUACAUGAGGAUCACCCAUGUAAAUAAAUAGGAGAGCCACAAUAAGUAGAAGGUCGAAUAA [JR_Exc003_Sub010]			35.6	32.4
GGAAAGUAAGGAUAUGCGAACAAACAAACAAACAAAAGGGAACAUGAGGAUCACCCAUGUAGAAGGUGCAAACA [Exclusion 2 Three redone]			46	32.6
AAAAGUGGAGGAUAUACAUGAGGAUCACCCAUGUGUAAAAAUAAAUACACAAAAGAAAGUAGAAGGCCACAAAA [Ex 3 May 10]			25.8	122
AAAAGGUGAGGAUAUUCGAAAAUAAAAGAAAAUAAAAGAAAGAAGAAGGCACAUGAGGAUCACCCAUGUAAUAA [LROPPY Exclusion 4 - v02_deltaG=2.94 break up the As mixed]			30.1	27
AAAAAACAUGAGGAUCACCCAUGUGAGGAUAUGAUGCGAAUAAAGAAAGAAGAAAGCAUCAGAAGGCACACCUA [Disincluded 3 (MS2 Riboswitches)]			26.3	59.9
GACAUGCUAGGAUAUACAGGACAAAUUGGGCAUCCGCAUGGACAUGAGGAUCACCCAUGUAGAAGGAGUAGAAA [Inonmatixe]			368	798
GAAAAACAUGAGGAUCACCCAUGUCAGGAUAUCGAAAAAAAUAAAAAAGAAAAGAAAACGAGAAGGGACAAAAG [Mat - Same state - Mayanna Mod - D112]			31.6	47.1
AAGAACUAAGGAUAUACAAAAUAAAAGAAAAGAAAGAAAGAACAUGAGGAUCACCCAUGUAGAAGGUAGAAGAA [Khakheperre Senusret II]			19.9	15.1
AGGGAGUGAGGAUAUACGAAAUAAAAAGAAGGAAAAAAAGAGUAGAAGGCACAUGAGGAUCACCCAUGUGAGAA [milkweed 12]			20.7	20.6
GAAACUGGAGGAUAUACGUACAUGUCAAAAGACGUGAAGGGACAUGAGGAUCACCCAUGUAGAAGGCUAGAAAG [Mat - Exclusion 2 - JL mod - D97]			70.6	21.9
AAGAAACAUGAGGAUCACCCAUGUGAGGAUAUUGAAGAAAGAAAGAAAGAAAGAAGAACAAGAAGGCACAAAGG [Quintus Magnus Maximus]			26.9	35
AAAAAACAUGAGGAUCACCCAUGUAAGGAUAUGCAAAACCCAUAUAAAAAGGGAAAAAGCAGAAGGUGCAAAAA [wbt round 1 mod 5]			23.7	33.2
AGAAACCUAGGAUAUACAUGAGGAUCACCCAUGUAAAGAAAGAAGGGAGCCACAAGAAGUAGAAGGAGGAAGAA [JR_Exc003_Sub005]			16.9	33.4
AAGAACCAAGGAUAUACAUGAGGAUCACCCAUGUAAAAGAAAGAGGGAAAAGAGAAAAGUAGAAGGUGGAAGAA [Ptolemy VI Philometor]			27.5	32.1
AAAGUGUGAGGAUAUGUCAAAGGUCACGAAAGUGACAAAGGGCAGAAGGUACAUGAGGAUCACCCAUGUAAAAA [Opal 1]			24	19.9
